US20260008815A1, “CYCLIC PEPTIDE OR SALT THEREOF, AND USES THEREOF” (FUJIFILM Corporation, priority 2023, published 2026)
Bridge positions count the residues as written; N and C are the ends. Ends that are not written are not given here. COCH2 = acetyl group that carries the bridge

These binders were tested against T1, Recombinant Human FGFR2 alpha (IIIc) Fc Chimera Protein, CF (R&D systems, 712-FR-050) (human, UniProt P21802 22-377) (assay: ELISA on plate-bound FGFR2-Fc).
T1 construct: bought; not shown: Fc part of the chimera
How it was run: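 Plate-immobilized FGFR2 alpha (IIIc)-Fc (5 ng/well) incubated with peptide 3 h at room temperature, then anti-Myc antibody 2 h and chemiluminescent ELISA substrate. Signal corrected by subtracting FGFR-free wells; binding affinity scored into categories from the dose-response.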

T1 sequence (P21802 22-377, change not shown): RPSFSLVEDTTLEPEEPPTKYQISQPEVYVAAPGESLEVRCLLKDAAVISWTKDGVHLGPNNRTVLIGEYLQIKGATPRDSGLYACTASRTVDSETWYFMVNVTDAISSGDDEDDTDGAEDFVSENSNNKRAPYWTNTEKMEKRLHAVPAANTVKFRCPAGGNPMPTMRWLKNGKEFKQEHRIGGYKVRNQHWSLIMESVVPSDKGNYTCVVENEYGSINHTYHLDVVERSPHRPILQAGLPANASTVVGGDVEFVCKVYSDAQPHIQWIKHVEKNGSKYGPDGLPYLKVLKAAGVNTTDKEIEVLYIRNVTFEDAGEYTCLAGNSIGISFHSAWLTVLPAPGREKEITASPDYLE

| Binder | ELISA luminescence signal at 10 nmol/L peptide, relative to SEQ ID NO: 47 (=1) [ratio] |
| --- | --- |
| QCSYLYQYVFERYKVTVPK(COCH2)D (thioether 2-19; not fully specified; printed as Q-(C)-SYLYQYVFERYKVTVP-(K(acetyl))-D) [cyclic peptide SEQ ID NO: 38] | ≥ 0.7 |
| NCPNYWSQIQWHYFQAYK(COCH2)Q (thioether 2-18) [cyclic peptide SEQ ID NO: 115] | ≥ 0.7 |
| QCQTDHQQQLYFIYQYLQK(COCH2)I (thioether 2-19) [cyclic peptide SEQ ID NO: 110] | 0.1 to 0.5 |
| LCRNYINPQQWRYFALYK(COCH2)Y (thioether 2-18) [cyclic peptide SEQ ID NO: 108] | ≥ 0.7 |
| LCRNYINPQQWRYFALYK(COCH2)N (thioether 2-18) [cyclic peptide SEQ ID NO: 117] | ≥ 0.7 |
| QCENWLSQDQWKYFWQYK(COCH2)I (thioether 2-18; not fully specified; printed as Q-(C)-ENWLSQDQWKYFWQY-(K(acetyl))-I) [cyclic peptide SEQ ID NO: 39] | ≥ 0.7 |
| DCSGNFFSKEQFHYLELFK(COCH2)K (thioether 2-19; not fully specified; printed as D-(C)-SGNFFSKEQFHYLELF-(K(acetyl))-K) [cyclic peptide SEQ ID NO: 40] | ≥ 0.7 |
| HCSQHQTTYYQIYAYLHAIK(COCH2)I (thioether 2-20 (inferred)) [cyclic peptide SEQ ID NO: 408] | 0.1 to 0.5 |
| QCDQEFYLALYAWTLRSYK(COCH2)L (thioether 2-19) [cyclic peptide SEQ ID NO: 111] | 0.1 to 0.5 |
| HCQPEYELYYIYLYLNALK(COCH2)I (thioether 2-19) [cyclic peptide SEQ ID NO: 112] | 0.1 to 0.5 |
| QCWYIQQYIWERYFLWHNK(COCH2)E (thioether 2-19) [cyclic peptide SEQ ID NO: 120] | 0.1 to 0.5 |
| DCFINELQYFYIQQYKK (not fully specified; thioether ring (C)-(K(acetyl))) [cyclic peptide SEQ ID NO: 109] | 0.5 to 0.7 |
| LCVQGNYQNPTQWYYFQLYK(COCH2)W (thioether 2-20 (inferred)) [cyclic peptide SEQ ID NO: 407] | 0.5 to 0.7 |
| LCNNWENYFDWLQWSYYIAYK(COCH2)E (thioether 2-21 (inferred)) [cyclic peptide SEQ ID NO: 409] | ≥ 0.7 |
| QCYQNWYLYQYLVERYYK(COCH2)D (thioether 2-18) [cyclic peptide SEQ ID NO: 116] | 0.1 to 0.5 |
| YCTDNYIDDIQFWYLFLYK(COCH2)Q (thioether 2-19) [cyclic peptide SEQ ID NO: 107] | 0.5 to 0.7 |
| YCTDNYIDDIQFWYLFLYK(COCH2)H (thioether 2-19) [cyclic peptide SEQ ID NO: 114] | ≥ 0.7 |
| LCPVPQQTDYLRWYQIIHK(COCH2)Q (thioether 2-19) [cyclic peptide SEQ ID NO: 118] | 0.1 to 0.5 |
| QCQLNYWDDLQFTYYLQYK(COCH2)V (thioether 2-19) [cyclic peptide SEQ ID NO: 37] | ≥ 0.7 |
| QCRYFWQYVLERYRVRLPK(COCH2)E (thioether 2-19) [cyclic peptide SEQ ID NO: 119] | ≥ 0.7 |
| LCGNYITPLQWKYFQTYK(COCH2)W (thioether 2-18) [cyclic peptide SEQ ID NO: 41] | ≥ 0.7 |
| RCINYWSGQQFYFFQQYK(COCH2)F (thioether 2-18) [cyclic peptide SEQ ID NO: 113] | 0.1 to 0.5 |

Continued, values first:

| ELISA luminescence signal at 10 nmol/L peptide, relative to SEQ ID NO: 47 (=1) [ratio] | Binder |
| --- | --- |
| 0.1 to 0.5 | CENYLDPEQYQYFHYFK(COCH2)Y (thioether 1-17 (inferred)) [cyclic peptide SEQ ID NO: 432] |
| ≥ 0.7 | TCVDKDNWYNHVQWQYFFLYK(COCH2)Q (thioether 2-21) [cyclic peptide SEQ ID NO: 411] |
| 0.1 to 0.5 | VCTQPQQDFELIYQYLYQLAK(COCH2)Q (thioether 2-21 (inferred)) [cyclic peptide SEQ ID NO: 424] |
| 0.1 to 0.5 | QCEYALQYYRFYVAQRHWVDK(COCH2)L (thioether 2-21 (inferred)) [cyclic peptide SEQ ID NO: 412] |
| 0.1 to 0.5 | WCFTEGIQSTVQLTYSYLYK(COCH2)L (thioether 2-20 (inferred)) [cyclic peptide SEQ ID NO: 423] |
| 0.1 to 0.5 | ECDQAQQVYALIYRYLYQLQK(COCH2)V (thioether 2-21 (inferred)) [cyclic peptide SEQ ID NO: 428] |
| 0.1 to 0.5 | PCDPLNLQQWYTAVYQLWHK(COCH2)R (thioether 2-20 (inferred)) [cyclic peptide SEQ ID NO: 426] |
| 0.1 to 0.5 | DCHTREDWQIHHLYQLLYQLK(COCH2)Y (thioether 2-21 (inferred)) [cyclic peptide SEQ ID NO: 419] |
| 0.1 to 0.5 | YCNYEWDGARRQIAYYRIFLK(COCH2)L (thioether 2-21 (inferred)) [cyclic peptide SEQ ID NO: 414] |
| 0.1 to 0.5 | YCTQEQAFRQLAYYQIFRRSK(COCH2)S (thioether 2-21 (inferred)) [cyclic peptide SEQ ID NO: 422] |
| 0.1 to 0.5 | LCTQFPASQRYYFALYRLWHK(COCH2)S (thioether 2-21 (inferred)) [cyclic peptide SEQ ID NO: 416] |
| ≥ 0.7 | CHENYLDPEQYQYFHYFK(COCH2)Y (thioether 1-18 (inferred)) [cyclic peptide SEQ ID NO: 430] |
| 0.1 to 0.5 | ECDTADYPQEWIQDVYQYLYK(COCH2)R (thioether 2-21 (inferred)) [cyclic peptide SEQ ID NO: 427] |
| 0.1 to 0.5 | CHENYLDPEQYQYFHYFK(COCH2) (thioether 1-18 (inferred)) [cyclic peptide SEQ ID NO: 431] |
| 0.1 to 0.5 | LCQIYLYLTALQQGFEDFYPK(COCH2)N (thioether 2-21 (inferred)) [cyclic peptide SEQ ID NO: 417] |
| 0.1 to 0.5 | YCHENYLDPEQYQYFHYFK(COCH2) (thioether 2-19 (inferred)) [cyclic peptide SEQ ID NO: 429] |
| 0.1 to 0.5 | GCGYTQLHYQHLFAWLHARK(COCH2)V (thioether 2-20 (inferred)) [cyclic peptide SEQ ID NO: 425] |
| 0.1 to 0.5 | VCLDEQQALFHQYYRITRRK(COCH2)V (thioether 2-20 (inferred)) [cyclic peptide SEQ ID NO: 421] |
| 0.1 to 0.5 | DCLRQQVYQYLYILFQNDIAK(COCH2)D (thioether 2-21 (inferred)) [cyclic peptide SEQ ID NO: 418] |
| 0.1 to 0.5 | YCDWVEVANARQLAYYTLYRK(COCH2)K (thioether 2-21) [cyclic peptide SEQ ID NO: 415] |
| 0.1 to 0.5 | QCDQDAIQWVYDLQYYRVWHK(COCH2)V (thioether 2-21 (inferred)) [cyclic peptide SEQ ID NO: 413] |
| ≥ 0.7 | WCQESSNYLAPLQWYFFNWYK(COCH2)T (thioether 2-21 (inferred)) [cyclic peptide SEQ ID NO: 410] |
| 0.1 to 0.5 | YCEAQPYYFQLYRLWHRQEK(COCH2)P (thioether 2-20 (inferred)) [cyclic peptide SEQ ID NO: 420] |
